Assay results published in paper PMC10786891, “Massively parallel profiling of RNA-targeting CRISPR-Cas13d”.
Positions count from the first letter of the chain named. Names and notes keep the numbering of the source.

T1: EsCas13d, nuclease-dead (Eubacterium siraeum, UniProt B0MS50, R295A;H300A;R849A;H854A)
T1 sequence: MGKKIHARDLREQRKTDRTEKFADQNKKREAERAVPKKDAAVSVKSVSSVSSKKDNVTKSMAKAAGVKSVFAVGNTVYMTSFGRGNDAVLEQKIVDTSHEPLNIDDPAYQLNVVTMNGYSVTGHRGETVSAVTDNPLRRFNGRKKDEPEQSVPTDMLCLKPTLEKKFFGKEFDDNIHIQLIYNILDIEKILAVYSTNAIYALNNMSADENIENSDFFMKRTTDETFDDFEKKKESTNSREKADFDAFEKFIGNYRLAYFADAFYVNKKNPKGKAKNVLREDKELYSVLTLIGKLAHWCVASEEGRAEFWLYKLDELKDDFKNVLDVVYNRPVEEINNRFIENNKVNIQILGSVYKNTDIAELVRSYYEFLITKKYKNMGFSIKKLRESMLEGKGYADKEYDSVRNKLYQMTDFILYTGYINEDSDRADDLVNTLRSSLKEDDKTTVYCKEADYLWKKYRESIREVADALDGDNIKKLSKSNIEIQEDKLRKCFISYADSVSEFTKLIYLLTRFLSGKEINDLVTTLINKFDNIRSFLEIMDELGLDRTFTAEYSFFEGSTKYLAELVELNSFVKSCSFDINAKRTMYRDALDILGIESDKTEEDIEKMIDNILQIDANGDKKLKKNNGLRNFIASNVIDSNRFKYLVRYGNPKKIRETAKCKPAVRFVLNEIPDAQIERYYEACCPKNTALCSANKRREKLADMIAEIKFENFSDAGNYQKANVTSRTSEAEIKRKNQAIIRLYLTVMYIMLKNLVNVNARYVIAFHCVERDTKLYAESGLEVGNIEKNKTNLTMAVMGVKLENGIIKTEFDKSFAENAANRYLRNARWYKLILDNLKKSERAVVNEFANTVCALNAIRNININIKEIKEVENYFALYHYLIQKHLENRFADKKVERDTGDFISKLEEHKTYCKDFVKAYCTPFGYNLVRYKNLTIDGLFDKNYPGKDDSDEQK

B1: target 1 insG 3' of 19,insG 3' of 7 (mixed)
RNA 1: CACCCGUGCAAAAAUGCAGGGGUCUAAAACUGAGCGGAUAACCUCUCUAUGG
RNA 2: GGGAAUGGAUCCACAUCUACGAAUUCGUACCAUGAGAGAGGUUAUCGCGCUCACCGAGAUCGGAAGAGCACACGU
B2: target 1 insU 3' of 14,insG 3' of 6 (mixed)
RNA 1: B1 RNA 1
RNA 2: B1 RNA 2 with G34A, A35G, G36A, A37G, G38A, A39U, G47C, C48G
B3: target 1 insU 3' of 15,insC 3' of 8 (mixed)
RNA 1: B1 RNA 1
RNA 2: B1 RNA 2 with G34A, A35G, G36A, A37G, G38U, G47C
B4: target 1 G12U,G17C (mixed)
RNA 1: B1 RNA 1
RNA 2: GGGAAUGGAUCCACAUCUACGAAUUCGUACCAUACAGAGUUUAUCCGCUCACCGAGAUCGGAAGAGCACACGU
B5: target 1 insA 3' of 22,insU 3' of 20 (mixed)
RNA 1: B1 RNA 1
RNA 2: GGGAAUGGAUCCACAUCUACGAAUUCGUACACAUUAGAGAGGUUAUCCGCUCACCGAGAUCGGAAGAGCACACGU
B6: target 1 U3A,A18C (mixed)
RNA 1: B1 RNA 1
RNA 2: B4 RNA 2 with A34C, C35G, U40G, U49A
B7: target 1 insC 3' of 20,insG 3' of 8 (mixed)
RNA 1: B1 RNA 1
RNA 2: B1 RNA 2 with U33C, G34U, C46G, G47C
B8: target 1 insC 3' of 11,insU 3' of 2 (mixed)
RNA 1: B1 RNA 1
RNA 2: GGGAAUGGAUCCACAUCUACGAAUUCGUACCAUAGAGAGGUCUAUCCGCUCUACCGAGAUCGGAAGAGCACACGU
B9: target 1 insA 3' of 21,insG 3' of 14 (mixed)
RNA 1: B1 RNA 1
RNA 2: B1 RNA 2 with U33A, G34U, U42G, A44U, U45A, C46U, G47C
B10: target 1 A1U,U10C (mixed)
RNA 1: B1 RNA 1
RNA 2: B4 RNA 2 with C35G, U40G, U42C, A51U
B11: target 1 del13,del22 (mixed)
RNA 1: B1 RNA 1
RNA 2: GGGAAUGGAUCCACAUCUACGAAUUCGUACAUAGAGAGUUAUCCGCUCACCGAGAUCGGAAGAGCACACGU
B12: target 1 insU 3' of 6,insG 3' of 4 (mixed)
RNA 1: B1 RNA 1
RNA 2: B8 RNA 2 with C42U, U43A, A44U, U45C, C47U, U50G, C51U, U52C
B13: target 1 U10C (mixed)
RNA 1: B1 RNA 1
RNA 2: B4 RNA 2 with C35G, U40G, U42C
B14: target 1 insU 3' of 18,insG 3' of 2 (mixed)
RNA 1: B1 RNA 1
RNA 2: B8 RNA 2 with G35U, A36G, G37A, A38G, G39A, U41G, C42U, U52G
B15: target 1 insG 3' of 22,insA 3' of 2 (mixed)
RNA 1: B1 RNA 1
RNA 2: GGGAAUGGAUCCACAUCUACGAAUUCGUACGCAUAGAGAGGUUAUCCGCUCAACCGAGAUCGGAAGAGCACACGU
B16: target 1 C6A,A20U (mixed)
RNA 1: B1 RNA 1
RNA 2: B4 RNA 2 with A32U, C35G, U40G, C46A
B17: target 1 C2U,U19C (mixed)
RNA 1: B1 RNA 1
RNA 2: B4 RNA 2 with U33C, C35G, U40G, C50U
B18: target 1 A20U,C22U (mixed)
RNA 1: B1 RNA 1
RNA 2: B4 RNA 2 with C30U, A32U, C35G, U40G
B19: target 1 U10A,A16G (mixed)
RNA 1: B1 RNA 1
RNA 2: B4 RNA 2 with C35G, A36G, U40G, U42A
B20: target 1 U3C,C7G (mixed)
RNA 1: B1 RNA 1
RNA 2: B4 RNA 2 with C35G, U40G, C45G, U49C
B21: target 1 C4A,U19G (mixed)
RNA 1: B1 RNA 1
RNA 2: B4 RNA 2 with U33G, C35G, U40G, C48A
B22: target 1 C4U,U8A (mixed)
RNA 1: B1 RNA 1
RNA 2: B4 RNA 2 with C35G, U40G, U44A, C48U
B23: target 1 U3G,A9G (mixed)
RNA 1: B1 RNA 1
RNA 2: B4 RNA 2 with C35G, U40G, A43G, U49G
B24: target 1 U8C,G13U (mixed)
RNA 1: B1 RNA 1
RNA 2: B4 RNA 2 with C35G, G39U, U40G, U44C
B25: target 1 del9 (mixed)
RNA 1: B1 RNA 1
RNA 2: GGGAAUGGAUCCACAUCUACGAAUUCGUACCAUAGAGAGGUUUCCGCUCACCGAGAUCGGAAGAGCACACGU
B26: target 1 C6G,U19G (mixed)
RNA 1: B1 RNA 1
RNA 2: B4 RNA 2 with U33G, C35G, U40G, C46G
B27: target 1 A1C,U10C (mixed)
RNA 1: B1 RNA 1
RNA 2: B4 RNA 2 with C35G, U40G, U42C, A51C
B28: target 1 C7U,U10C (mixed)
RNA 1: B1 RNA 1
RNA 2: B4 RNA 2 with C35G, U40G, U42C, C45U
B29: target 1 G5C,A16C (mixed)
RNA 1: B1 RNA 1
RNA 2: B4 RNA 2 with C35G, A36C, U40G, G47C
B30: target 1 U8C,U10A (mixed)
RNA 1: B1 RNA 1
RNA 2: B4 RNA 2 with C35G, U40G, U42A, U44C
B31: target 1 insU 3' of 9,insA 3' of 2 (mixed)
RNA 1: B1 RNA 1
RNA 2: B8 RNA 2 with C42U, U43A, A44U, U52A
B32: target 1 insG 3' of 6,insU 3' of 6 (mixed)
RNA 1: B1 RNA 1
RNA 2: GGGAAUGGAUCCACAUCUACGAAUUCGUACCAUAGAGAGGUUAUCCGUGCUCACCGAGAUCGGAAGAGCACACGU
B33: target 1 insG 3' of 11,insG 3' of 10 (mixed)
RNA 1: B1 RNA 1
RNA 2: B32 RNA 2 with U42G, A43U, U44G, C45A, C46U, G47C, U48C

target: T1, EsCas13d, nuclease-dead; assay: crRNA (strand 1, pre-loaded); Mg2+; 40 mM Tris-HCl pH 7.5, 150 mM NaCl, 6 mM MgCl2, 1 mM DTT, 0.1% Tween-20, 0.2 mg/ml BSA; 25 C; 10 min per concentration, then washed; conditions: tags: His6-TwinStrep-SUMO cleaved; N-terminal SNAP kept (SNAP-Surface 488); label: 3' end held by stalled T7 RNA polymerase

| Binder | Kd [nM] |
| --- | --- |
| B1 | 46 ± 4 |
| B2 | 40 ± 6 |
| B3 | 42 ± 6 |
| B4 | ~43 |
| B5 | 16.7 ± 1 |
| B6 | 50 ± 6 |
| B7 | 8.6 ± 0.4 |
| B8 | 73 ± 21 |
| B9 | 23.8 ± 2.3 |
| B10 | 20 ± 1.7 |
| B11 | 30.9 ± 3 |
| B12 | 7.21 ± 0.28 |
| B13 | 18 ± 1.1 |
| B14 | 26.4 ± 1.7 |
| B15 | 28.8 ± 2.3 |
| B16 | 35.2 ± 2.1 |
| B17 | 21.2 ± 1.5 |

| Binder | Kd [nM] |
| --- | --- |
| B18 | 45 ± 8 |
| B19 | 38.4 ± 2.1 |
| B20 | 8.47 ± 0.27 |
| B21 | 49 ± 19 |
| B22 | 19 ± 1.1 |
| B23 | 8.3 ± 0.8 |
| B24 | 61 ± 11 |
| B25 | 11.5 ± 0.6 |
| B26 | 42 ± 5 |
| B27 | 22.2 ± 2.9 |
| B28 | 20.9 ± 1.5 |
| B29 | 88 ± 15 |
| B30 | 11 ± 0.5 |
| B31 | 19.8 ± 1.9 |
| B32 | 9.9 ± 0.7 |
| B33 | 30 ± 4 |
